Results reported in patent publication US20160145343A1 (UNIVERSITY OF PITTSBURGH OF THE COMMONWEALTH SYSTEM OF …, published 2016).
Changes are numbered by the printed parent chain.

B1: M14 (antibody, human IgG1, kappa, V domains shown)
VH: QVQLVESGGGLVKPGGSLRLSCAASGFTFSDYYMSWIRQAPGKGLEWVSYISSSGTTKYYADSVKGRFTISRDNAKNSLYLQMNSLRAEDTAVYYCVRENLGYCSGGSCFYYYYMDVWGKGTTVTVSS
VL: not shown
B2: M23 (antibody, human IgG1, kappa, V domains shown)
VH: B1 VH with L101I, S105T, S108N
VL: not shown
B3: M22 (antibody, human IgG1, kappa, V domains shown)
VH: EVQLVESGGGLVQPGGSLRLSCAASGFTVSSNYMSWVRQAPGKGLEWVSVIYSGGTTYYADSVKGRFTISRHNSKNTLYLQMNSLRAEDTAVYYCARDHDPDYGGYYMDVWGKGTTVTVSS
VL: DVVMTQSPLSLPVTLGQPASISCRSSQSLVYSDGNTYLNWFQQRPGQSPRRLIYQVSNRDSGVPDRFSGSGSGTDFTLKIGRVEAEDVGVYFCMQGTHWPWTFGQGTKVEIKR
notes: Human IgG
B4: M3 (antibody, human IgG1, lambda, V domains shown)
VH: QLQLQESGPGLVKPSETLSLTCTVSGGSISSSSYYWGWIRQPPGKGLEWIGSIYYSGSTHYNPSLKSRVTISVDTSKNQFSLKLRSVTAADTAVYYCARGVVEVRGNHYYYYYMDVWGKGTTVTVSS
VL: QSVLTQPPSVSGAPGQRVTISCTGSSSNIGAGYDVHWYQQLPGTAPKLLIYGNSYRPSGVPDRFSGSKSGTSASLAITGLQAEDEADYYCQSYDSSLSGSGVFGGGTKLTVLG
notes: Human IgG
B5: M7 (antibody, human IgG1, kappa, V domains shown)
VH: EVQLVESGGGLVQPGGSLRLSCAASGFTVSSNYMSWVRQAPGKGLEWVSVIYSGGSTYYADSVKGRFTISRDNSKNTLYLQMNSLRAEDTAVYYCARGSTNTYYYDSSGHPWGQGTMVTVSS
VL: DIVMTQSPLSLPATPGEPASISCRSSQSLLHSNGYTYLDWYLQKPGQSPQVLIYLASNRASGVPDRFSGSGSGTNFTLKISRVEAEDVGLFYCMQALQTPQTFGQGTKLEIKR
notes: Human IgG
B6: M16 (antibody, human IgG1, kappa, V domains shown)
VH: B1 VH
VL: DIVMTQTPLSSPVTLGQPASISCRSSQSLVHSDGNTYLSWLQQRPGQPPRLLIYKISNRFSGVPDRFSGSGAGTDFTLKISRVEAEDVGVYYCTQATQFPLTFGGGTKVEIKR
notes: Human IgG
B7: M20 (antibody, human IgG1, kappa, V domains shown)
VH: EVQLVESGGGLVQPGGSLRLSCAASGFTFSSYWMHWVRQAPGKGLVWVSHINSDGSSTSYADSVKGRFTISRDNAKNTLYLQMNSLRAEDTAVYYCARELADWGQGTLVTVSS
VL: B3 VL
notes: Human IgG
B8: M21 (antibody, human IgG1, kappa, V domains shown)
VH: EVQLVESGGGLVQPGGSLRLSCAASGFTVSSNYMSWVRQAPGKGLEWVSVIYSGGSTYYADSVKGRFTISRDNSKNTLYLQMNSLRAEDTAVYYCARDQEHYFDGSGYYVDYWGQGTLVTVSS
VL: B3 VL
notes: Human IgG

Biological target: T1, MUC1 on MUC1+ human cancer cell lines and tumor tissue (abnormal, e.g. hypoglycosylated, tumor MUC1) (human, UniProt P15941 24-1255)
T1 construct: the MUC1 of each cell line or tissue (number of repeats, glycoform) is not specified; The cell line or tissue is named under assay; also called MUC1 on HPAF, MCF-7, BT-20, SKBR-3, PANC-1, MS+MUC1 cells; MUC1 on colon and pancreatic tumor samples
Test: immunohistochemistry, colon tissue microarray, malignant samples
Experimental: (§1) Secondary antibodies alone were used as negative controls. Following staining, the microarrays were analyzed using CELLPROFILER cell image analysis software (Broad Institute).

Binder	MUC1+ samples stained
B1	56 of 114 MUC1+ malignant samples
B2	76 of 114 MUC1+ malignant samples

Biological target: T1, MUC1 on MUC1+ human cancer cell lines …
Test: flow cytometry, PANC-1 cells
Experimental: (§2) The antibodies were further characterized for their surface binding to MUC1-expressing human cancer cell lines HPAF (pancreatic), MCF-7 (breast), BT-20 (breast), PANC-1 (pancreatic), and MS (breast) cell lines that express very low levels of MUC1 and was transfected with MUC1 cDNA (MS+MUC1). MCF-10A, a human nontransformed mammary epithelial cell line that expresses normal MUC1, was used as a predicted negative control for tumor MUC1 (hypoglycosylated MUC1)-specific staining Cells were grown attached to tissue culture plates, trypsinized, washed with PBS and 1% FBS and stained with each antibody for 30 minutes on ice. Cells were then washed 2 times with PBS and 1% FBS and stained with appropriate allophycocyanin (APC)-labeled secondary antibodies. Cells were washed again 2 times with PBS and 1% FBS and then analyzed by flow cytometry. Thirty-thousand events were collected for each sample and gated for viability by forward and side scatter. Live cells were then gated for APC+ staining as compared to an appropriate secondary antibody only control.

Binder	percentage of APC+ stained cells
B3	0.7%
B1	55.2%
B2	45.1%
B4	1.55%
B5	0.41%
B6	0.76%
B7	0.39%
B8	0.75%

Biological target: T1, MUC1 on MUC1+ human cancer cell lines …
Test: flow cytometry, MS+MUC1 cells
Experimental: as §2

Binder	percentage of APC+ stained cells
B3	5.78%
B1	28.4%
B2	33.8%
B4	22%
B5	22.4%
B6	7.03%
B7	6.32%
B8	4.41%

Biological target: T1, MUC1 on MUC1+ human cancer cell lines …
Test: immunohistochemistry, colon tissue microarray, benign samples
Experimental: as §1

Binder	MUC1+ samples stained
B1	2 of 3 MUC1+ benign samples
B2	2 of 3 MUC1+ benign samples

Biological target: T1, MUC1 on MUC1+ human cancer cell lines …
Test: flow cytometry, BT20 cells
Experimental: as §2

Binder	percentage of APC+ stained cells
B3	3.39%
B1	22.9%
B2	23%
B4	14.8%
B5	12.2%
B6	5.17%
B7	9.86%
B8	4.06%

Biological target: T1, MUC1 on MUC1+ human cancer cell lines …
Test: flow cytometry, MCF-7 cells
Experimental: as §2

Binder	percentage of APC+ stained cells
B3	5.68%
B1	20.8%
B2	16.1%
B4	79.6%
B5	83.5%
B6	18.3%
B7	29.2%
B8	5%

Biological target: T1, MUC1 on MUC1+ human cancer cell lines …
Test: flow cytometry, SKBR-3 cells
Experimental: as §2

Binder	percentage of APC+ stained cells
B3	1.34%
B1	22.3%
B2	18.6%
B4	5.71%
B5	1.65%
B6	2.68%
B7	1.91%
B8	0.99%

Biological target: T1, MUC1 on MUC1+ human cancer cell lines …
Test: flow cytometry, HPAF cells
Experimental: as §2

Binder	percentage of APC+ stained cells
B3	2.99%
B1	6.81%
B2	5.71%
B4	42.1%
B5	51.5%
B6	5.93%
B7	4.36%
B8	2.6%
